The record followed here is article PMC5892705.

Assay [1] has as its target human oxytocin receptor (human) (UniProt P30559).
Assay [2] deals with human vasopressin V1a receptor (human) (UniProt P37288).
In assay [3] the target is human oxytocin receptor (human) (UniProt P30559). The source holds these as a separate data set.
Chain of human oxytocin receptor (human) (P30559 whole entry): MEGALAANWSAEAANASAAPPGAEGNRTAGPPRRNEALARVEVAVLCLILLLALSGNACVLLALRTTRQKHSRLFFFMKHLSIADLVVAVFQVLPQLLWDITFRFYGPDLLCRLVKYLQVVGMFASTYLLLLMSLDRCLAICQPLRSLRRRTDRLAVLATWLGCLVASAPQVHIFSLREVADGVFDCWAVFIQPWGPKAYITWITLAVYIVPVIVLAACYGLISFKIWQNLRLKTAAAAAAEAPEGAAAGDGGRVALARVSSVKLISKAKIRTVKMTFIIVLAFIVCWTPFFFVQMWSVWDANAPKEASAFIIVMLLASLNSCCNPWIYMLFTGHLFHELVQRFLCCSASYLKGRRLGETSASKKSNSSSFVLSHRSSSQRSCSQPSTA

Chain of Oxytocin (P01178 whole entry, looked up): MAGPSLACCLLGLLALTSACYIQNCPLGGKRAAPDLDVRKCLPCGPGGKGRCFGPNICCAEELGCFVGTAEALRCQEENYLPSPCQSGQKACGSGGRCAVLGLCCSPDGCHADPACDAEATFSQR
Chain of human vasopressin V1a receptor (human) (P37288 whole entry): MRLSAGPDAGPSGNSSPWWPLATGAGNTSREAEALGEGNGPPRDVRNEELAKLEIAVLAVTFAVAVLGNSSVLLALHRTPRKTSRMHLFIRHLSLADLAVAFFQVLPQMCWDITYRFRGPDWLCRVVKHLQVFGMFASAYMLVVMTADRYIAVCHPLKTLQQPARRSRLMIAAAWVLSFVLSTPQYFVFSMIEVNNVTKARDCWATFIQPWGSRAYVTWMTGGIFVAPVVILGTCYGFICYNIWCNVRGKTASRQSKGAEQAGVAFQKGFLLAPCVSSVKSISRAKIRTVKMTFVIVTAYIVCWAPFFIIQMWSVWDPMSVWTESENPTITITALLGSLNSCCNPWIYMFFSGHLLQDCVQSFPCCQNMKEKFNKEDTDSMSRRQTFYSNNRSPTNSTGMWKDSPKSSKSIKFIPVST

Regarding “Oxytocin (from UniProt P01178 20-28) (peptide)”, in assay [1], the tissue bath, contraction amplitude of strips of pregnant human myometrium, EC50 was 1.14 nM. In assay [2], this substance gave a maximal intracellular Ca2+ in human cardiomyocytes (FLIPR), EC50 of 174 nM.
With d[Se-Se]-OT-OH (peptide), the FLIPR Ca2+ mobilization, Emax in assay [3] turned out to be 59%.
